Source: the Human Domainome abundance scans (Beltran et al. 2025)

B1: Gamma-crystallin C, residues 91 to 170; numbered along this chain, P07315 (parent)
chain: RLYEREDHKGLMMELSEDCPSIQDRFHLSEIRSLHVLEGCWVLYELPNYRGRQYLLRPQEYRRCQDWGAMDAKAGSLRRV

Variants of: B1
Test: abundance fitness (aPCA) (normalised: wild type 0, dead -1); higher = more abundant; growth selection in yeast, the domain comes from the species named
Details: Homo sapiens

Abundance fitness: each site, then its substitutions
C19: K -0.623; L -0.659; R -0.886; V -0.43; A -0.836; Y -0.712; P -0.902; E -0.369; W -0.807; S -0.92; T -0.535; F -0.969; M -0.761
F26: C -0.317; L -0.343; Q -0.787; G -0.406; V -0.461; A -0.564; Y -0.461; R -0.886; E -0.923; I -0.553; M -0.049; S -0.69; K -0.818; W -0.007; T -0.217
I22: Y -0.6; V -0.149; S -0.975; L -0.084; M -0.562; A -0.784; R -0.771; T -0.649; W -0.801; C -0.61; D -0.89; F -0.47; G -0.921; P -0.978
H27: S -0.079; G 0.047; M -0.075; W -0.441; K -0.137; I -0.739; R -0.037; T -0.345; Q -0.034; E -0.119; V -0.602; C -0.115; N 0.075; A -0.069; L -0.18; F -0.414
S33: D -1.07; Y -0.424; R -0.9; K -0.957; F -0.99; W -0.98; H -0.933; T -1.04; I -0.492; L -0.865; V -1.01; M -0.673; Q -1.03; G -0.872
P20: S -0.292; D -0.24; W -0.503; E -0.11; L -0.613; A -0.025; C -0.253; T -0.43; Q -0.442; M -0.684; V -0.345; H 0.061; G -0.394; Y -0.996; R -0.44; I -0.506; N -0.152
I31: T -0.789; D -0.843; N -0.912; G -1.01; E -0.987; C -0.833; S -0.665; W -0.848; A -0.611; K -1.02; Q -0.992; P -0.951; R -0.776
D18: C -0.676; G -0.936; F -0.955; A -0.462; P -0.66; K -0.934; I -0.758; Q -0.935; M -0.496; R -0.938; E -0.675; V -1.01; T -0.805; Y -0.748; L -0.956; W -0.997; S -0.142
L34: Q -0.781; Y -0.572; E -0.537; A -0.064; M 0.027; T -0.848; V -0.043; F -0.097; C -0.161; S -0.897; I 0.056; D -0.579; G -0.725; W -0.486
S21: P -0.602; G -0.613; C -0.089; H -0.184; W -0.904; N 0.053; R -0.454; V -0.56; D -0.07; K -0.472; M -0.914; I -0.842; Y -0.762; T -0.456; L -0.761; A -0.467; E -0.554
L28: W 0.134; M -0.038; G -0.364; I 0.093; F -0.335; Y -0.252; S -0.251; R -0.05; H -0.448; T -0.601; A -0.129; K -0.022; N -0.697; V -0.035; Q -0.337; P -0.864; E -0.451
V36: M -0.742; W -0.788; C -0.836; A -0.783; G -0.76; Q -0.713; R -1.08; N -0.772; L -0.632; I -0.013; E -0.88; S -0.969; Y -0.947
S16: Y -0.094; R -0.082; T -0.129
R32: A -0.302; S -0.466; D -0.89; Y -0.417; G 0.082; K -0.018; L -0.359; Q -0.279; V -0.808; M -0.412; H 0.009; I -0.587; W -0.631; P -0.146; N -0.146; E -0.478; C -0.178; F -0.683
S29: E -0.112; G -0.118; T -0.012; W -0.113; K -0.013; I -0.408; C -0.237; P -0.199; L -0.165; N -0.003; F -0.318; H -0.064; D -0.073; A -0.161; R -0.043; Y -0.132; M -0.408; Q -0.086; V -0.328
R25: Y -0.463; V -0.025; D -0.396; W -0.134; G -0.602; T -0.148; C -0.339; I -0.598; K -0.07; P -0.736; A -0.086; Q -0.179; L -0.184; S -0.078
L37: A -0.553; H -0.351; P -0.813; D -0.254; Q -0.256; M -0.158; F -0.263; E -0.481; I -0.062; S -0.372; K -0.136; C -0.578; T -0.326; N -0.363
D24: E 0.045; T -0.202; V -0.396; H -0.087; S -0.067; P -0.951; N -0.183; Q -0.213; A -0.008; C -0.274; L -0.31; M -0.194; Y -0.35; W -0.516; G -0.167; K -0.256
E17: C -0.168; W -0.187; G -0.132; S -0.155; F -0.516; V -0.253; A -0.18; N -0.477; P -0.91; K -0.416; I -0.533; D -0.035; T -0.231; Y -0.526; H -0.564; L -0.544; R -0.422; Q -0.089
Q23: M -0.033; I 0.007; H -0.122; C -0.187; S -0.145; R -0.128; N -0.016; L -0.076; Y -0.17; F -0.093; E 0; A -0.044; P -0.127; K -0.043; W 0.003; D -0.276; G -0.124; V -0.053
H35: P -0.789; F -0.325; N -0.09; A -0.053; L -0.15; T 0.081; S -0.05; K -0.029; D -0.107; M -0.222; I -0.004; E 0.139; Y -0.202; V 0.036; W -0.354; G -0.845; C -0.206
E30: H 0.019; K -0.13; Y -0.145; C -0.117; R -0.184; P -1.17; A -0.133; G -0.273; V -0.275; T -0.186; L -0.368; W -0.455; N -0.116; F -0.234; S -0.222; I -0.458; D -0.424
